What all share (experiment): SPR (Biacore), antibody captured on chip, FcgR extracellular domain as analyte
In general terms: In SPR one partner is held on a chip, and binding of the other changes the refractive index at the surface.

The target in test [1] is T1, FcgRIa (human, UniProt P12314 16-292).
T1 construct: extracellular domain; Expressed in FreeStyle293 cells and purified; used as analyte in Biacore; also called FcγRIa; FcγRI; not shown: His tag attached to the C terminus

Test [2] concerns the target T2, FcgRIIa H (human, UniProt P12318 34-217).
T2 construct: extracellular domain; also called FcγRIIa H; FcγRIIa type H; not shown: His tag attached to the C terminus
T2 sequence (looked up): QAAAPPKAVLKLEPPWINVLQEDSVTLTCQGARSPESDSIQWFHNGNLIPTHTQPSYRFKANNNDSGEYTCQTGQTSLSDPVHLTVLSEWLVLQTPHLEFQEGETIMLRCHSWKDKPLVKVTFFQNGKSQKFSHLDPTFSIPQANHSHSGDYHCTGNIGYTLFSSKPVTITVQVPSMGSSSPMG

Test [3] concerns the target T3, FcgRIIIa V (human, UniProt P08637 17-208).
T3 construct: extracellular domain; also called FcγRIIIa V; not shown: His tag attached to the C terminus

Test [4] deals with T1, FcgRIa. The method, then: (§1) Analysis of interaction between obj ective antibody and the FcγR was carried out using Biacore T100 (GE Healthcare), Biacore T200, Biacore A100, and Biacore 4000. HBS-EP+ (GE Healthcare) was used as the running buffer, and the measurement temperature was set to 25° C. Chips produced by immobilizing the antigen peptide by the amine coupling method to a Series S sensor Chip CM5 (GE Healthcare), chips produced by allowing preliminarily biotinylated antigen peptides to interact with and immobilize onto a Series S Sensor Chip SA (certified) (GE Healthcare), chips produced by immobilizing Protein L (ACTIGEN, BioVision) to Series S Sencor Chip CM5 (GE Healthcare), or chips produced by immobilizing Protein A/G (Thermo Scientific) to Series S Sencor Chip CM5 (GE Healthcare) were used. Antibodies of interest were captured onto these chips, and allowed to interact to each FcγR diluted with running buffer. To regenerate and repeatedly use the chip, the antibodies captured onto the chip were washed off by reacting 10 mM glycine-HCl, pH 1.5.
This is another data set of the same source.

The target in the next test is T4, FcgRIIa R (human, UniProt P12318 34-217).
T4 construct: extracellular domain; also called FcγRIIa R; FcγRIIa type R; not shown: His tag attached to the C terminus
T4 sequence (looked up): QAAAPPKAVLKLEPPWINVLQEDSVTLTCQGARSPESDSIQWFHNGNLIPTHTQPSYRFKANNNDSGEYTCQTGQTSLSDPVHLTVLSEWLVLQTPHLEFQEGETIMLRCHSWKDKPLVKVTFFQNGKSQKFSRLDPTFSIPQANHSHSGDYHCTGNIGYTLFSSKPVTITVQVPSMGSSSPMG
The method, then:
as §1

The target in test [5] is T2, FcgRIIa H. The method, then:
as §1
This is another data set of the same source.

In another test the target is T5, FcgRIIb (human, UniProt P31994 43-217).
T5 construct: extracellular domain; Expressed in FreeStyle293 cells and purified; used as analyte in Biacore; also called FcγRIIb; CD32B; not shown: His tag attached to the C terminus
T5 sequence (looked up): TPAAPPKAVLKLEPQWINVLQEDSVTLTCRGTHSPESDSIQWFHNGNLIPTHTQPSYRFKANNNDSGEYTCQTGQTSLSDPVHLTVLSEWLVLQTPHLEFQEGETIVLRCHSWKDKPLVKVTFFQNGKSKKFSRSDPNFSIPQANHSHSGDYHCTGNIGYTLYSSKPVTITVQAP
The method, then: as §1

The next test concerns the target T6, FcgRIIIa F (human, UniProt P08637 17-208).
T6 construct: extracellular domain; also called FcγRIIIa F; not shown: His tag attached to the C terminus
The method, then:
as §1

The target in test [6] is T3, FcgRIIIa V. The method, then: as §1
This is another data set of the same source.

Read-outs that look alike come from different tables or passages of the source.

T3 sequence (P08637 17-208 F176V limits assumed): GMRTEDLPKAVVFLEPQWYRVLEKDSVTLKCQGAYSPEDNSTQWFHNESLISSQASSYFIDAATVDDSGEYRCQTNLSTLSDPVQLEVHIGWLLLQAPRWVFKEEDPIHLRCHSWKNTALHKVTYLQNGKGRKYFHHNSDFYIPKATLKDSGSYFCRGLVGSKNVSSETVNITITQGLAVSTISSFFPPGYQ
T1 sequence (P12314 16-292): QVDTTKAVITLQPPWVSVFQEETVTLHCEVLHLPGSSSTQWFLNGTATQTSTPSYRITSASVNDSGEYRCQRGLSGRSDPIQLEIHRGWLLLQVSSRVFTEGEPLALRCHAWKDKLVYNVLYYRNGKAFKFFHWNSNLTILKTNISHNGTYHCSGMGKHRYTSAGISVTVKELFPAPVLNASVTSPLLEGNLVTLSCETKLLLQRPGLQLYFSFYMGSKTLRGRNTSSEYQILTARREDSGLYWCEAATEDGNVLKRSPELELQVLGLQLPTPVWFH
T6 sequence (P08637 17-208): as the sequence (P08637 17-208 F176V limits assumed) above, with V160F counted along it

B1: H240-afucosyl_G1d/L73-k0 (antibody, human IgG1, kappa)
heavy: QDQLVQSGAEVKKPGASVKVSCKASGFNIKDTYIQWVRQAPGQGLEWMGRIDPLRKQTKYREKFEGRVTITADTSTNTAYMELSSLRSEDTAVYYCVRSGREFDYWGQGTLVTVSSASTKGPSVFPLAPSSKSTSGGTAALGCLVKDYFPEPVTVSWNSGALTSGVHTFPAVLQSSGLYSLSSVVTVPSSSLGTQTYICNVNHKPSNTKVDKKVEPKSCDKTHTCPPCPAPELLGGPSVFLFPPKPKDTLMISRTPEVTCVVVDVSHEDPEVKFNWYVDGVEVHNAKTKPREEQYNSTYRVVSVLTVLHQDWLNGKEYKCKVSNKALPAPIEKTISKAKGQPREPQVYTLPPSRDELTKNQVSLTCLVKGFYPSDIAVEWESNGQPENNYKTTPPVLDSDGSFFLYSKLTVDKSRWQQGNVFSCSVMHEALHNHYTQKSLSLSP
light: DIQMTQSPSSLSASVGDRVTITCRASQDIHKYIAWYQQKPGQAPRLLIQYTSTLQPGVPSRFSGSGSGTDYTFTISSLQPEDIATYYCLQYEQLRTFGGGTKVEIKRTVAAPSVFIFPPSDEQLKSGTASVVCLLNNFYPREAKVQWKVDNALQSGNSQESVTEQDSKDSTYSLSSTLTLSKADYEKHKVYACEVTHQGLSSPVTKSFNRGEC
modifications: fucose removed from the sugar chain (afucosylated); amino acid sequence same as H240-G1d
notes: Anti-EREG IgG1 obtained by afucosylating H240-G1d/L73-k0; also called afucosylated antibody
As a reminder, the Kd is the concentration at which binding is half-saturated. On to B1, for which the dissociation constant (Kd) in the test with FcgRIa [1] came out at 0.43 nM; in the test with FcgRIIa H [2], 780 nM; in the test with FcgRIIIa V [3], 6.9 nM; with FcgRIa [4], 0.43 nM; with FcgRIIa R, 490 nM; with FcgRIIa H [5], 780 nM. Further, the Kd with FcgRIIb came to 2600 nM; in the test with FcgRIIIa F, 79 nM; with FcgRIIIa V [6] it was 6.9 nM.

The values above are taken from patent US20180155451A1 (published 2018).
